In this data set the target is T1, synthetic TAL effector (RVG-LAMP-2B-NLS-TALE) (Artificial Sequence, UniProt P14727 SEQ:1-766).
T1 chain: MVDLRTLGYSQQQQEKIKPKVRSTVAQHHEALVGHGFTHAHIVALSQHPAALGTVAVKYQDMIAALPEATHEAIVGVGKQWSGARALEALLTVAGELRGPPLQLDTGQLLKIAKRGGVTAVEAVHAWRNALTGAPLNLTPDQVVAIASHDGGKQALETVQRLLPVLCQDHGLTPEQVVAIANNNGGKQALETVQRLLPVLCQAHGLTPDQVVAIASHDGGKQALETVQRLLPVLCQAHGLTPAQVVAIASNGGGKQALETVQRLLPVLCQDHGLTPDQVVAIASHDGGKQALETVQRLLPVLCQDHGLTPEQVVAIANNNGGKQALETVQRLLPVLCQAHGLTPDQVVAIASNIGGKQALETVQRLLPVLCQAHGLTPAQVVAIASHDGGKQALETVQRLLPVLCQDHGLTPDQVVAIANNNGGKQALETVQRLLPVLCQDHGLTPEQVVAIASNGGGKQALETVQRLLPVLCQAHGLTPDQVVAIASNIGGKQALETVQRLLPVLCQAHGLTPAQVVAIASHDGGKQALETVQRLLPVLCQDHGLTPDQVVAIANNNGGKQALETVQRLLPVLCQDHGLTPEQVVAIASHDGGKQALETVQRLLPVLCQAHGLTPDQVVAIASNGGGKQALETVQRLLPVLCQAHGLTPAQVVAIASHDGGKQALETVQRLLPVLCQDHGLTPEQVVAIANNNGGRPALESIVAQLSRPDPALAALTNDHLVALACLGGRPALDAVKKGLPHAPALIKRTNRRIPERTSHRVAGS
Nature of the data set: cell_activity. The following applies: tags: fusion to C-terminus of RVG-LAMP-2B-NLS, expressed from pcDNA3.0 in HEK-293.

This passage reports binding signal results from patent publication US20170073382 (Nomadogen Biotechnologies Inc., published 2017).

B1: gfaABC1D-NeuroD1 plasmid with TAL effector binding site (dsDNA)
DNA 1: TCGCTCGACGTACGCTCG
DNA 2: CGAGCGTACGTCGAGCGA
In turn, B1 gave a binding signal of 3 fold.
